The results in this text go back to article PMC5680780.

The target of this assay is recombinant Clonorchis sinensis pyruvate kinase (Clonorchis sinensis). Briefly: native gel or EMSA + SEC; purified rCsPK on 8% native PAGE against marker proteins; gel filtration on a Sepharose 12 10/300 GL column (AKTA FPLC), 0.8 ml/min, 50 mM Tris-HCl, 100 mM KCl, pH 7.5; apparent Mr about 290 kDa against a subunit of about 58 kDa. A general note: A gel shift assay detects complexes by their altered migration in electrophoresis.

What is called stoichiometry N is the number of molecules, sites or subunits per partner or assembly. For “recombinant Clonorchis sinensis pyruvate kinase (enzyme)”, the stoichiometry N was 5.
